Tests used:
U2AF1 WT;U2AF2;SF1 = U2AF1 WT;U2AF2;SF1 (Homo sapiens?;Homo sapiens?;Homo …, UniProt Q01081;P26368-2;Q15637 1-193;85-471;1-255, ||); test: fluorescence anisotropy; 20 nM 5'-fluorescein RNA, size-exclusion chromatography buffer (composition, pH and temperature not in the material), 384-well plate, 3 replicates; details: protein: recombinant;recombinant;recombinant; tags: ;;; copies: 1;1;1; label: 5' fluorescein
U2AF1 S34F;U2AF2;SF1 = U2AF1 S34F;U2AF2;SF1 (Homo sapiens?;Homo sapiens?;Homo …, UniProt Q01081;P26368-2;Q15637 1-193;85-471;1-255, S34F||); test: as above; details: protein: recombinant;recombinant;recombinant; tags: ;;; copies: 1;1;1; label: 5' fluorescein
Chain of U2AF1 S34F;U2AF2;SF1 (Q01081 1-193 S34F, chain 1 of 3): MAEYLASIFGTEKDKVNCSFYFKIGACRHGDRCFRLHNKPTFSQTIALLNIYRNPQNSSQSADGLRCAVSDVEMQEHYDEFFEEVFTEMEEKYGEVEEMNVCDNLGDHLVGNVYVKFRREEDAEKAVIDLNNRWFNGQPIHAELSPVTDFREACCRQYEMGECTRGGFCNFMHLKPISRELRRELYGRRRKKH
Chain of U2AF1 S34F;U2AF2;SF1 (P26368 other isoform, or with tags, fused parts or gaps S34F|| | S34F S34F, chain 2 of 3): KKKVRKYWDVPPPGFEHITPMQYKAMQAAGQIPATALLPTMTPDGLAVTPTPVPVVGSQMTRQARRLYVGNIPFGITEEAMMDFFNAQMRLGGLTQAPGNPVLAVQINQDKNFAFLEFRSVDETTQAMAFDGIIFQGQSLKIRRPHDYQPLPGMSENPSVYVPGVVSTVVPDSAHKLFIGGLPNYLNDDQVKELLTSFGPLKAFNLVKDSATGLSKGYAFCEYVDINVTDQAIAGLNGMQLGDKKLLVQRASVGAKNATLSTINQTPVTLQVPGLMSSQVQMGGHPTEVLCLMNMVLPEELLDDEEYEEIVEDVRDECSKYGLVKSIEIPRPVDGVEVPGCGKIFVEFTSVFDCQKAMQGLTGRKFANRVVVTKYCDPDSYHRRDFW
Chain of U2AF1 S34F;U2AF2;SF1 (Q15637 1-255, chain 3 of 3): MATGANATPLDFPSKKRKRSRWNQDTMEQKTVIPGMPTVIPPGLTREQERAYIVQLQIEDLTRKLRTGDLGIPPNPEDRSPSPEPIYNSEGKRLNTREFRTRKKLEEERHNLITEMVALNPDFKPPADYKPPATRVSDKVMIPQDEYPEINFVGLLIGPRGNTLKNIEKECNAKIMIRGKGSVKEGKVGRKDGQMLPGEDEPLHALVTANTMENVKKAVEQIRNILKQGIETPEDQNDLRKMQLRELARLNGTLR

Chain of U2AF1 WT;U2AF2;SF1 (Q01081 1-193, chain 1 of 3): as the sequence (Q01081 1-193 S34F, chain 1 of 3) above, with F34S counted along it
Chain of U2AF1 WT;U2AF2;SF1 (P26368 other isoform, or with tags, fused parts or gaps ||, chain 2 of 3): as the sequence (P26368 other isoform, or with tags, fused parts or gaps S34F|| | S34F S34F, chain 2 of 3) above
Chain of U2AF1 WT;U2AF2;SF1 (Q15637 1-255, chain 3 of 3): as the sequence (Q15637 1-255, chain 3 of 3) above

| Binder | Kd (U2AF1 WT;U2AF2;SF1) | Kd (U2AF1 S34F;U2AF2;SF1) |
| --- | --- | --- |
| UGAAAAAGUUGUCUCCCUUUGGCAGGCAAAAGA (ssRNA) [FXR1 distal 3' splice site] | 41 ± 6 nM | 46 ± 11 nM |
| UCUUCCAUAUCCACCUUUUCCUAAGAUGGCAAG (ssRNA) [ATR proximal 3' splice site] | 188 ± 52 nM | – |
| UUGACUGUCCUUCUCUAUUUUGAAGCCUUCACAGG (ssRNA) [CEP164 proximal 3' splice site] | 12 ± 1 nM | 49 ± 9 nM |
| UUUUUCUCAUCUUUAACAGUCACAGUUGCAGAU (ssRNA) [FXR1 proximal 3' splice site] | 71 ± 6 nM | 38 ± 6 nM |
| GUCUGUUGUCCCUCUGUCCUCAAAGAUGAUCAC (ssRNA) [MED15 proximal 3' splice site] | 208 ± 35 nM | 483 ± 106 nM |
| UUGGUUUUAUGUUUCUUCUUUUUAGGCCAAGAC (ssRNA) [ATR distal 3' splice site] | 7 ± 0.5 nM | 49 ± 6 nM |
| GAAGCAUCAAAUGCUUCUGAAACAGAAUCUGACCA (ssRNA) [FMR1 distal 3' splice site] | 427 ± 20 nM | 444 ± 58 nM |
| GUAUAUAACUUUUAACUCUCGAUAGGAACUAAUUC (ssRNA) [FMR1 proximal 3' splice site] | 188 ± 27 nM | 281 ± 44 nM |
| GCCGGCUGAGCCCCUCCACUUCCAGGUCAGCCA (ssRNA) [MED15 distal 3' splice site] | 157 ± 25 nM | 32 ± 8 nM |
| CACUUGUCAUCAUUUUUGUUUCUAGAGUGUCCACA (ssRNA) [CEP164 distal 3' splice site] | 497 ± 46 nM | 447 ± 63 nM |
| CAUUUCCUCCUUUUUGCAUUUUCAGGUGACUGU (ssRNA) [ZFAND1 distal 3' splice site] | 53 ± 4 nM | 43 ± 7 nM |
| UAAACACUUGCUAUUAUUAUUUAAGCCUUGAAC (ssRNA) [ZFAND1 proximal 3' splice site] | 24 ± 1 nM | 5 ± 1 nM |

Source: publication PMC5077151, “Wild-Type U2AF1 Antagonizes the Splicing Program Characteristic of U2AF1-Mutant Tumors and Is Required for Cell Survival”
